Laboratory results taken from paper PMC11143254, “Cryo-EM structure of cadmium-bound human ABCB6” (Communications Biology, 2024).

Target: the molecule itself
Assay: cryo-EM structure; nanodisc-reconstituted hABCB6^core (0.5 mg/mL) incubated with 800 uM CdCl2 and 1 mM GSH (or PC2) at 4 °C for 30 min; C2 symmetry; inward-facing homodimer

B1: human ABCB6 core region lacking TMD0 (hABCB6^core) (domain or fragment, UniProt Q9NP58 206-842, looked up)
chain: APGLRPQSYTLQVHEEDQDVERSQVRSAAQQSTWRDFGRKLRLLSGYLWPRGSPALQLVVLICLGLMGLERALNVLVPIFYRNIVNLLTEKAPWNSLAWTVTSYVFLKFLQGGGTGSTGFVSNLRTFLWIRVQQFTSRRVELLIFSHLHELSLRWHLGRRTGEVLRIADRGTSSVTGLLSYLVFNVIPTLADIIIGIIYFSMFFNAWFGLIVFLCMSLYLTLTIVVTEWRTKFRRAMNTQENATRARAVDSLLNFETVKYYNAESYEVERYREAIIKYQGLEWKSSASLVLLNQTQNLVIGLGLLAGSLLCAYFVTEQKLQVGDYVLFGTYIIQLYMPLNWFGTYYRMIQTNFIDMENMFDLLKEETEVKDLPGAGPLRFQKGRIEFENVHFSYADGRETLQDVSFTVMPGQTLALVGPSGAGKSTILRLLFRFYDISSGCIRIDGQDISQVTQASLRSHIGVVPQDTVLFNDTIADNIRYGRVTAGNDEVEAAAQAAGIHDAIMAFPEGYRTQVGERGLKLSGGEKQRVAIARTILKAPGIILLDEATSALDTSNERAIQASLAKVCANRTTIVVAHRLSTVVNADQILVIKDGCIVERGRHEALLSRGGVYADMWQLQQGQEETSEDTKPQTMER
notes: human ABCB6, core region lacking the N-terminal TMD0, residues 206-842, codon-optimized synthetic gene; Homodimeric half-transporter; The C-terminal tag (thrombin site, eGFP, 10xHis) was removed by thrombin; residues of the cleavage site may remain; Modelled residues exclude the extreme N-terminus and residues 827-842; not shown: eGFP, C-terminal, cleaved; 10xHis, C-terminal, cleaved
- stoichiometry N: 2
